According to patent US20250282866A1 (VIGIL NEUROSCIENCE, published 2025):
Where a chain is given by its changes, count along the chain named.

T1: human TREM2 (human, UniProt Q9NZC2 19-174, limits assumed)
T1 construct: also called triggering receptor expressed on myeloid cells 2
T1 sequence: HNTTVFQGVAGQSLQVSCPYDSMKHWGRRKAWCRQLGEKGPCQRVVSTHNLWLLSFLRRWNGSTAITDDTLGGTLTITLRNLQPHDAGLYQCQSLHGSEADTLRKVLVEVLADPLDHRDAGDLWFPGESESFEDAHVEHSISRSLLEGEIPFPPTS

B1: V1 (antibody, V domains shown)
VH: EVQLVQSGAEVKKPGESLKISCKGSGYSFTSSWIAWVRQMPGKGLEWMGIIYPGDSDTRYSPSFQGQVTISADKSISTAYLQWSSLKASDTAMYFCARSRTFYYDSSDYFDYWGQGTLVTVSS
VL: DIQMTQSPSSVSASVGDRVTITCRASQGISSWLAWYQQKPGKAPKLLIYAASSLTNGVPSRFSGSGSGTDFTLTISSLQPEDFATYFCQQADSYPRTFGQGTKLEIK
B2: V25 (antibody, V domains shown)
VH: B1 VH with T30G, S32Y, I50L
VL: B1 VL with T55A, Y94M
B3: V41 (antibody, V domains shown)
VH: B1 VH with S32Y, I50T, S99Q
VL: B1 VL with T55Q, Y94F
B4: V2 (antibody, V domains shown)
VH: B1 VH with Y27S, S32Y, S56G
VL: B1 VL with L54R, T55Q, S93R, Y94F
B5: V3 (antibody, V domains shown)
VH: B1 VH with T30A, S32Y, G66D, S99G
VL: B1 VL with L54R, T55Q, S93R, Y94F
B6: V5 (antibody, V domains shown)
VH: B1 VH with S32Y, I50T, S99Q
VL: B1 VL with T55Q, Y94H
B7: V37 (antibody, V domains shown)
VH: B1 VH with F29H, S32Y, Q65A
VL: B1 VL with T55Q, N56W
B8: V53 (antibody, V domains shown)
VH: B1 VH with S32Y, S63H, S99Q
VL: B1 VL with T55Q, Y94F
B9: V94 (antibody, V domains shown)
VH: B1 VH with S32Y, S99Q
VL: B1 VL with S52A, T55Q, Y94F
B10: V13 (antibody, V domains shown)
VH: B1 VH with T30G, S32Y, P62A, S99G
VL: B1 VL with T55Q, N56G, Y94M
B11: V50 (antibody, V domains shown)
VH: B1 VH with T30G, S32Y, I50V, S99Q, F110L
VL: B1 VL with L54R, T55Q, Y94L
B12: V48 (antibody, V domains shown)
VH: B1 VH with T30G, S32Y, T58V, S99M
VL: B1 VL with T55Q, N56T, Y94L
B13: V24 (antibody, V domains shown)
VH: B1 VH with S32Y, T58V
VL: B1 VL with T55Q, N56K, Y94F, R96H
B14: V92 (antibody, V domains shown)
VH: B1 VH with S32Y, S99Q, Y103H
VL: B1 VL with T55Q, Y94F
B15: V52 (antibody, V domains shown)
VH: B1 VH with T30E, S32Y, S99G
VL: B1 VL with T55Q, N56R, S93R, Y94F
B16: V4 (antibody, V domains shown)
VH: B1 VH with T30G, S32Y, Y60V
VL: B1 VL with S53R, T55Q
B17: V93 (antibody, V domains shown)
VH: B1 VH with S32Y, S99Q
VL: B1 VL with S31G, T55Q, Y94F
B18: V51 (antibody, V domains shown)
VH: B1 VH with S32Y, T58V, S99G, Y112N
VL: B1 VL with L54R, T55Q, Y94F
B19: V27 (antibody, V domains shown)
VH: B1 VH with S32Y, S61A, A97V
VL: B1 VL with T55Q, N56R, Y94F
B20: V16 (antibody, V domains shown)
VH: B1 VH with F29M, S32Y, S56G
VL: B1 VL with S53N, T55Q, Y94F
B21: V28 (antibody, V domains shown)
VH: B1 VH with T30Q, S32Y, I50T, S99Q, Y103F
VL: B1 VL with T55Q, N56S, Y94L
B22: V17 (antibody, V domains shown)
VH: B1 VH with T30G, S32Y
VL: B1 VL with L54R, T55Q, Y94S
B23: V39 (antibody, V domains shown)
VH: B1 VH with T30G, S32Y, S61N, S99G
VL: B1 VL with T55V, Y94S
B24: V36 (antibody, V domains shown)
VH: B1 VH with S32Y, I34L
VL: B1 VL with L54R, T55Q
B25: V15 (antibody, V domains shown)
VH: B1 VH with T30A, S32Y, I50T
VL: B1 VL with S53W, T55Q
B26: V49 (antibody, V domains shown)
VH: B1 VH with T30N, S32Y, I50T, Y60L
VL: B1 VL with L54R, T55Q
B27: V38 (antibody, V domains shown)
VH: B1 VH with T30G, S32Y, T58V, S99Q
VL: B1 VL with L54R, T55Q, Y94H
B28: V14 (antibody, V domains shown)
VH: B1 VH with T30G, S32Y, S56Q, S99G
VL: B1 VL with S53R, T55Q, Y94F
B29: V40 (antibody, V domains shown)
VH: B1 VH with T30G, S32Y, T58V, S99Q, F110S
VL: B1 VL with T55Q, N56L, S93R, Y94F
B30: V26 (antibody, V domains shown)
VH: B1 VH with S32Y, A35G, I50T, S99Q, F102M, Y112A
VL: B1 VL with T55Q, N56R
B31: V29 (antibody, V domains shown)
VH: B1 VH with T30K, S32Y, S99Q
VL: B1 VL with T55Q, Y94F

Experiments:
human TREM2 [1] = target: T1, human TREM2; experiment: 2nd screen 10 nM
human TREM2 [2] = target: T1, human TREM2; experiment: 2nd screen 2 nM
human TREM2 [3] = target: T1, human TREM2; experiment: 1st screen (110 nM or 10 nM)
human TREM2 [4] = target: T1, human TREM2; experiment: 2nd screen 100 nM

Binder | Binding Signal (fold over 6E7 Parental antibody) (human TREM2 [1]) [fold] | Binding Signal (fold over 6E7 Parental antibody) (human TREM2 [2]) [fold] | Binding Signal (fold over 6E7 Parental antibody) (human TREM2 [3]) [fold] | Binding Signal (fold over 6E7 Parental antibody) (human TREM2 [4]) [fold]
B1 | 1.92 | 1.29 | 1.68 | –
B2 | 4.7 | 3.15 | 4.23 | –
B3 | 1.72 | 0.58 | 1.74 | –
B4 | 2.9 | 2.23 | 2.55 | –
B5 | 2.24 | 1.95 | 1.97 | –
B6 | 2.84 | 1.25 | 2.73 | –
B7 | 3.49 | 3.69 | 3.46 | –
B8 | 1.17 | 0.66 | 1.25 | –
B9 | – | – | 0.31 | 0.87
B10 | 1.35 | 1.15 | 1.31 | –
B11 | 4.16 | 3.39 | 4.1 | –
B12 | 2.54 | 2.3 | 2.42 | –
B13 | 2.9 | 1.42 | 2.64 | –
B14 | – | – | 0.22 | 0.65
B15 | 3.09 | 1.78 | 3 | –
B16 | 5.51 | 5.88 | 6 | –

Binder | Binding Signal (fold over 6E7 Parental antibody) (human TREM2 [1]) [fold] | Binding Signal (fold over 6E7 Parental antibody) (human TREM2 [2]) [fold] | Binding Signal (fold over 6E7 Parental antibody) (human TREM2 [3]) [fold] | Binding Signal (fold over 6E7 Parental antibody) (human TREM2 [4]) [fold]
B17 | – | – | 0.35 | 1.05
B18 | 3.18 | 1.83 | 2.81 | –
B19 | 5.69 | 5.67 | 5.5 | –
B20 | 4.04 | 3.57 | 4.01 | –
B21 | 3.61 | 2.63 | 3.08 | –
B22 | 5.51 | 4.22 | 5.37 | –
B23 | 5.81 | 5.11 | 6.15 | –
B24 | 3.44 | 4 | 3.38 | –
B25 | 4.78 | 4.72 | 5.23 | –
B26 | 6.58 | 5.02 | 6.51 | –
B27 | 4.36 | 3.44 | 4.34 | –
B28 | 4.64 | 2.57 | 4.71 | –
B29 | 4.16 | 3.41 | 4.48 | –
B30 | 3.47 | 2.83 | 3.57 | –
B31 | 1.67 | 0.84 | 1.53 | –
